Source: patent US20080254026A1 (published 2008)

Columns and labels:
[1] = target: human CD40 on normal human B cells (PBMC or purified B cells) (human, UniProt P25942 20-277); assay: cell-based or functional assay
[2] = target: T1, CD40 extracellular Domain 3 GST fusion protein (human, UniProt P25942 104-144); assay: SDS-PAGE and Western blot of insect cell supernatant with GST domain fusions
T1 construct: not shown: GST fusion partner
T1 chain: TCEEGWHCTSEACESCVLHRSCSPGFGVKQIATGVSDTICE
Protocol: (§1) To map the antigenic region on CD40, the four extracellular domains of CD40 were cloned and expressed in insect cells as GST fusion proteins. The secretion of the four domains was ensured with a GP67 secretion signal. Insect cell supernatant was analyzed by SDS-PAGE and western blot analysis to identify the domain containing the epitope.

[3] = target: T2, CD40 extracellular Domain 1 GST fusion protein (human); assay: as above
T2 construct: Expressed in insect cells with a GP67 secretion signal; not shown: GST fusion partner
T2 chain: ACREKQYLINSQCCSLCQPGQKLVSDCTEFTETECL
Protocol: as §1

[4] = target: T3, CD40 extracellular Domain 4 GST fusion protein (human, UniProt P25942 145-187); assay: as above
T3 construct: not shown: GST fusion partner
T3 chain: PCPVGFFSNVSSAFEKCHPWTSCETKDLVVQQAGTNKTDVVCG
Protocol: as §1

[5] = target: T4, Recombinant soluble CD40-his (human, UniProt P25942 21-193); assay: Biacore, antibody captured on protein A CM5 chip, CD40-his as analyte, 1:1 model/global fit
T4 construct: Analyte in the Biacore experiments; not shown: his tag
T4 sequence (P25942 21-193 limits assumed): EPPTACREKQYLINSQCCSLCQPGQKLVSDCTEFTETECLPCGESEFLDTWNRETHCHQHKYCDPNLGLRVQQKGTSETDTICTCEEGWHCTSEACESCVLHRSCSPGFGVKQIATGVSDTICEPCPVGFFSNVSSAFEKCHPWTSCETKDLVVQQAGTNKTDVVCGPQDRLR
Protocol: (§2) Protein A was immobilized onto CM5 biosensor chips via amine coupling. Human anti-CD40 monoclonal antibodies, at 1.5 μg/ml, were captured onto the modified biosensor surface for 1.5 minutes at 10 μl/min. Recombinant soluble CD40-his was flowed over the biosensor surface at varying concentrations. Antibody and antigen were diluted in 0.01 M HEPES pH 7.4, 0.15 M NaCl, 3 mM EDTA, 0.005% Surfactant P20 (HBS-EP). Kinetic and affinity constants were determined using the Biaevaluation software with a 1:1 interaction model/global fit.

[6] = target: human CD40 antigen expressed on the surface of cells (human, UniProt P25942 20-277); assay: cell-based or functional assay
human CD40 antigen expressed on the surface of cells, sequence (P25942 20-277): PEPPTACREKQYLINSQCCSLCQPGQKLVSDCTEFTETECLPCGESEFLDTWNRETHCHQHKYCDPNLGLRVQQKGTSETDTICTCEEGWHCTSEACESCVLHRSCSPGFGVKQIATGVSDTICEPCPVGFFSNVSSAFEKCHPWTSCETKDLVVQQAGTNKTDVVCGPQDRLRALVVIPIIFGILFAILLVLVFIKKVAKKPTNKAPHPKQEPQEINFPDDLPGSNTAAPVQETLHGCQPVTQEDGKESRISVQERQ

[7] = target: T4, Recombinant soluble CD40-his; assay: Biacore
Protocol: as §2

[8] = target: T5, CD40 extracellular Domain 2 GST fusion protein (human, UniProt P25942 61-104); assay: Western blot of GST domain fusions
T5 construct: Expressed in insect cells with a GP67 secretion signal; not shown: GST fusion partner
T5 chain: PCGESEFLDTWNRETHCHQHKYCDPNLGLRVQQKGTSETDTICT

[9] = target: T6, SPOTs peptide, spot 19 (QHKYCDPNLG) (human); assay: SPOTs peptide membrane, antibody at 10 µg/ml
T6 peptide: QHKYCDPNLG
Source text: (§3) SPOTs membranes (Sigma) containing thirty-five 10 mer peptides with a 1-amino-acid offset were generated.

[10] = target: T7, SPOTs peptide, spot 22 (YCDPNLGLRV) (human); assay: SPOTs peptide membrane, antibody at 10 µg/ml
T7 peptide: YCDPNLGLRV
Source text: as §3

[11] = target: T8, SPOTs peptide, spot 20 (HKYCDPNLGL) (human); assay: SPOTs peptide membrane, antibody at 10 µg/ml
T8 peptide: HKYCDPNLGL
Source text: as §3

[12] = target: T9, SPOTs peptide, spot 21 (KYCDPNLGLR) (human); assay: SPOTs peptide membrane, antibody at 10 µg/ml
T9 peptide: KYCDPNLGLR
Source text: as §3

[13] = target: T10, SPOTs peptide, spot 18 (HQHKYCDPNL) (human); assay: SPOTs peptide membrane, antibody at 10 µg/ml
T10 peptide: HQHKYCDPNL
Source text: as §3

[14] = target: T11, CD40 Domain 2 SPOTs peptide, spot 18 (HQHKYCDPNL) (human); assay: SPOTs membrane of 10mer peptides of CD40 Domain 2; spot 18 listed among the results
T11 construct: 10mer synthesized on a SPOTs membrane; also called Spot Number 18
T11 peptide: HQHKYCDPNL
Source text: as §3

[15] = target: T12, CD40 Domain 2 SPOTs peptide, spot 22 (YCDPNLGLRV) (human); assay: SPOTs membrane of 10mer peptides of CD40 Domain 2; spot 22 listed among the results
T12 construct: 10mer synthesized on a SPOTs membrane; also called Spot Number 22
T12 peptide: YCDPNLGLRV
Source text: as §3

[16] = target: T13, CD40 extracellular Domain 2 GST fusion protein (human, UniProt P25942 61-104); assay: western blot of CD40 domain GST fusion proteins (Domain 2)
T13 construct: Expressed in insect cells with a GP67 secretion signal; not shown: glutathione S-transferase (GST) fusion partner
T13 chain: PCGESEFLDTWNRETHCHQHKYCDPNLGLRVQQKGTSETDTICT
Protocol: as §1

[17] = target: T14, CD40 extracellular Domain 1 GST fusion protein (human); assay: western blot of CD40 domain GST fusion proteins
T14 construct: Expressed in insect cells with a GP67 secretion signal; not shown: glutathione S-transferase (GST) fusion partner
T14 chain: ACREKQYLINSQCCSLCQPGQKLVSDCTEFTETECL
Protocol: as §1

[18] = target: T15, CD40 extracellular Domain 4 GST fusion protein (human, UniProt P25942 145-187); assay: western blot of CD40 domain GST fusion proteins
T15 construct: Expressed in insect cells with a GP67 secretion signal; not shown: glutathione S-transferase (GST) fusion partner
T15 chain: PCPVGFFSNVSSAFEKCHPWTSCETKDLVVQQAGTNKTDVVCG
Protocol: as §1

[19] = target: T16, CD40 extracellular Domain 3 GST fusion protein (human, UniProt P25942 104-144); assay: western blot of CD40 domain GST fusion proteins
T16 construct: Expressed in insect cells with a GP67 secretion signal; not shown: glutathione S-transferase (GST) fusion partner
T16 chain: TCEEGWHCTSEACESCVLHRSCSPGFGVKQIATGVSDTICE
Protocol: as §1

[20] = target: T17, CD40 Domain 2 SPOTs peptide, spot 20 (HKYCDPNLGL) (human); assay: SPOTs membrane of 10mer peptides of CD40 Domain 2; spot 20 listed among the results
T17 construct: 10mer synthesized on a SPOTs membrane; also called Spot Number 20
T17 peptide: HKYCDPNLGL
Source text: as §3

[21] = target: T18, CD40 Domain 2 SPOTs peptide, spot 21 (KYCDPNLGLR) (human); assay: SPOTs membrane of 10mer peptides of CD40 Domain 2; spot 21 listed among the results
T18 construct: 10mer synthesized on a SPOTs membrane; also called Spot Number 21
T18 peptide: KYCDPNLGLR
Source text: as §3

[22] = target: T19, CD40 Domain 2 SPOTs peptide, spot 19 (QHKYCDPNLG) (human); assay: SPOTs membrane of 10mer peptides of CD40 Domain 2; spot 19 listed among the results
T19 construct: 10mer synthesized on a SPOTs membrane; also called Spot Number 19
T19 peptide: QHKYCDPNLG
Source text: as §3

[23] = target: T13, CD40 extracellular Domain 2 GST fusion …; assay: western blot of CD40 Domain 2, reduced
[24] = target: T7, SPOTs peptide, spot 22 (YCDPNLGLRV); assay: SPOTs peptide membrane, stripped and reprobed
Source text: as §3

[25] = target: T8, SPOTs peptide, spot 20 (HKYCDPNLGL); assay: SPOTs peptide membrane, stripped and reprobed
Source text: as §3

[26] = target: T9, SPOTs peptide, spot 21 (KYCDPNLGLR); assay: SPOTs peptide membrane, stripped and reprobed
Source text: as §3

[27] = target: T20, CD40 Domain 2 10-mer peptide YCDPNLGLRV (spot 22) (human); assay: SPOTs membrane of 10-mer peptides, spot 22 listed as recognised
T20 construct: Synthetic 10-mer on a SPOTs membrane (Sigma)
T20 peptide: YCDPNLGLRV
Source text: as §3

[28] = target: T21, CD40 Domain 2 10-mer peptide HKYCDPNLGL (spot 20) (human); assay: SPOTs membrane of 10-mer peptides, spot 20 listed as recognised
T21 construct: Synthetic 10-mer on a SPOTs membrane (Sigma)
T21 peptide: HKYCDPNLGL
Source text: as §3

[29] = target: T22, CD40 Domain 2 10-mer peptide KYCDPNLGLR (spot 21) (human); assay: SPOTs membrane of 10-mer peptides, spot 21 listed as recognised
T22 construct: Synthetic 10-mer on a SPOTs membrane (Sigma)
T22 peptide: KYCDPNLGLR
Source text: as §3

human CD40 on normal human B cells (PBMC or purified B cells), sequence (P25942 20-277): as the sequence (P25942 20-277) above

B1: monoclonal antibody CHIR-12.12 (antibody, human IgG1, kappa)
heavy: not shown
light: DIVMTQSPLSLTVTPGEPASISCRSSQSLLYSNGYNYLDWYLQKPGQSPQVLISLGSNRASGVPDRFSGSGSGTDFTLKISRVEAEDVGVYYCMQARQTPFTFGPGTKVDIRRTVAAPSVFIFPPSDEQLKSGTASVVCLLNNFYPREAKVQWKVDNALQSGNSQESVTEQDSKDSTYSLSSTLTLSKADYEKHKVYACEVTHQGLSSPVTKSFNRGEC
IC50(nM) for inhibition of CD40L-induced PBMC proliferation; PBMC-025 Donor#1 [1]: 24.2 nM
IC50(nM) for inhibition of CD40L-induced PBMC proliferation; PBMC-025 Donor#2 [1]: 66 nM
IC50(nM) for inhibition of CD40L-induced PBMC proliferation; PBMC-026 Donor#1 [1]: 45 nM
IC50(nM) for inhibition of CD40L-induced PBMC proliferation; PBMC-026 Donor#2 [1]: 84 nM
IC50(nM) for inhibition of CD40L-induced PBMC proliferation; PBMC-028 Donor#1 [1]: 30.1 nM
IC50(nM) for inhibition of CD40L-induced PBMC proliferation; PBMC-028 Donor#2 [1]: 34.7 nM
IC50(nM) for inhibition of CD40L-induced PBMC proliferation; PBMC-029 Donor#1 [1]: 28.1 nM
IC50(nM) for inhibition of CD40L-induced PBMC proliferation; PBMC-029 Donor#2 [1]: 55.4 nM
IC50(nM) for inhibition of CD40L-induced PBMC proliferation; PBMC-030 Donor#1 [1]: 35.5 nM
IC50(nM) for inhibition of CD40L-induced PBMC proliferation; PBMC-030 Donor#2 [1]: 103 nM
IC50(nM) for inhibition of CD40L-induced PBMC proliferation; PBMC-032 Donor#1 [1]: 40.4 nM
average IC50(nM) for inhibition of CD40L-induced PBMC proliferation [1]: 49.6 nM

B2: monoclonal antibody CHIR-12.12 (antibody, human IgG1, kappa)
light: DIVMTQSPLSLTVTPGEPASISCRSSQSLLYSNGYNYLDWYLQKPGQSPQVLISLGSNRASGVPDRFSGSGSGTDFTLKISRVEAEDVGVYYCMQARQTPFTFGPGTKVDIRRTVAAPSVFIFPPSDEQLKSGTASVVCLLNNFYPREAKVQWKVDNALQSGNSQESVTEQDSKDSTYSLSSTLTLSKADYEKHKVYACEVTHQGLSSPVTKSFNRGEC
heavy: not shown
binding result [2]: no binding
binding result [3]: no binding
binding result [4]: no binding
Kd [5]: 0.51 nM
IC50: antibody concentration to inhibit 50% of CD-40 ligand-induced lymphocyte proliferation, average of 6 donors [6]: 0.047 nM
Kd [7]: 0.5 nM
binding result [8]: binds
binding result [9]: binds
binding result [10]: binds
binding result [11]: binds
binding result [12]: binds
binding result [13]: binds

B3: monoclonal antibody CHIR-12.12 (antibody, human IgG1, kappa)
heavy: not shown
light: DIVMTQSPLSLTVTPGEPASISCRSSQSLLYSNGYNYLDWYLQKPGQSPQVLISLGSNRASGVPDRFSGSGSGTDFTLKISRVEAEDVGVYYCMQARQTPFTFGPGTKVDIRRTVAAPSVFIFPPSDEQLKSGTASVVCLLNNFYPREAKVQWKVDNALQSGNSQESVTEQDSKDSTYSLSSTLTLSKADYEKHKVYACEVTHQGLSSPVTKSFNRGEC
notes: Fully human IgG1 kappa anti-CD40 antibody; Leader residues (1-19 heavy, 1-20 light) left out as stated
binding result [14]: binds
binding result [15]: binds
binding result [16]: binds
binding result [17]: no binding
binding result [18]: no binding
binding result [19]: no binding
binding result [20]: binds
binding result [21]: binds
binding result [22]: binds

B4: monoclonal antibody CHIR-5.9 (antibody, human IgG1, kappa)
heavy: not shown
light: AIVMTQPPLSSPVTLGQPASISCRSSQSLVHSDGNTYLNWLQQRPGQPPRLLIYKFFRRLSGVPDRFSGSGAGTDFTLKISRVEAEDVGVYYCMQVTQFPHTFGQGTRLEIKRTVAAPSVFIFPPSDEQLKSGTASVVCLLNNFYPREAKVQWKVDNALQSGNSQESVTEQDSKDSTYSLSSTLTLSKADYEKHKVYACEVTHQGLSSPVTKSFNRGEC
notes: Fully human IgG1 kappa anti-CD40 antibody; Leader residues (1-19 heavy, 1-20 light) left out as stated; also called mAb CHIR-5.9; CHIR-5.9/5.11
binding result [17]: no binding
binding result [18]: no binding
binding result [19]: no binding
binding result [23]: binds

B5: monoclonal antibody CHIR-5.9 (antibody, human IgG1, kappa)
light: AIVMTQPPLSSPVTLGQPASISCRSSQSLVHSDGNTYLNWLQQRPGQPPRLLIYKFFRRLSGVPDRFSGSGAGTDFTLKISRVEAEDVGVYYCMQVTQFPHTFGQGTRLEIKRTVAAPSVFIFPPSDEQLKSGTASVVCLLNNFYPREAKVQWKVDNALQSGNSQESVTEQDSKDSTYSLSSTLTLSKADYEKHKVYACEVTHQGLSSPVTKSFNRGEC
heavy: not shown
notes: also called mAb 5.9
binding result [2]: no binding
binding result [3]: no binding
binding result [4]: no binding
binding result [24]: binds
binding result [25]: binds
binding result [26]: binds
Kd [5]: 12.2 nM
Kd [7]: 12 nM
binding result [8]: binds

B6: monoclonal antibody CHIR-5.9 (antibody, human IgG1, kappa)
light: AIVMTQPPLSSPVTLGQPASISCRSSQSLVHSDGNTYLNWLQQRPGQPPRLLIYKFFRRLSGVPDRFSGSGAGTDFTLKISRVEAEDVGVYYCMQVTQFPHTFGQGTRLEIKRTVAAPSVFIFPPSDEQLKSGTASVVCLLNNFYPREAKVQWKVDNALQSGNSQESVTEQDSKDSTYSLSSTLTLSKADYEKHKVYACEVTHQGLSSPVTKSFNRGEC
heavy: not shown
notes: Fully human IgG1 kappa anti-CD40 antibody; also called mAb CHIR-5.9
binding result [27]: binds
binding result [28]: binds
binding result [29]: binds
